The record followed here is FireProtDB (doi:10.1038/12277).

B1: Ribonuclease HI, P0A7Y4 (parent)
chain: MLKQVEIFTDGSCLGNPGPGGYGAILRYRGREKTFSAGYTRTTNNRMELMAAIVALEALKEHCEVILSTDSQYVRQGITQWIHNWKKRGWKTADKKPVKNVDLWQRLDAALGQHQIKWEWVKGHAGHPENERCDELARAAAMNPTLEDTGYQVEV

The variants in the data set derive from B1. To be noted: Escherichia coli (strain K12), pH 5.5, CD, Potassium phosphate 2 mM, KF 5 mM, reversible: yes, structure 2RN2, whole UniProt chain shown; for ddG of mutation (higher = less stable) / denaturant m value / unfolding free energy: 25 °C, Urea; for Tm / change of melting temperature, mutant - wild type (higher = more stable): Thermal.

Broadly, the Tm is the temperature at which the thermal transition is half complete. For the variant D10A, the “ddG of mutation (higher = less stable)” value is -3.3 kcal/mol, the denaturant m value was determined as 2.1 kcal/mol/M, the unfolding free energy stood at 13 kcal/mol and the Tm came out at 62.6 °C. For the same variant, the “change of melting temperature, mutant - wild type (higher = more stable)” value (shortened to “change of melting temperature, mutant”) was determined as 14.8 °C.

For the variant R27A, the “ddG of mutation (higher = less stable)” value worked out at 2.2 kcal/mol, the denaturant m value was determined as 2 kcal/mol/M, the unfolding free energy was found to be 7.5 kcal/mol and the Tm is 42.2 °C. Besides, the “change of melting temperature, mutant” value was -5.6 °C.

With Q105G, the “ddG of mutation (higher = less stable)” value stood at 2.2 kcal/mol, the denaturant m value was 2.1 kcal/mol/M, the unfolding free energy amounted to 7.5 kcal/mol and the Tm came out at 38.2 °C. In addition, the “change of melting temperature, mutant” value is -9.6 °C.

Consider I53A, for which the Tm stood at 35.7 °C and the “change of melting temperature, mutant” value was -12.1 °C.
